The values that follow are results of earlier work, collected in patent US20210265014A1, “METHOD AND ELECTRONIC SYSTEM FOR PREDICTING AT LEAST ONE FITNESS VALUE OF A PROTEIN VIA AN EXTENDED NUMERICAL SEQUENCE, RELATED COMPUTER PROGRAM PRODUCT” (PEACCEL, priority 2018, published 2021).

For the data set, the target named is T1, Glucagon like peptide-2 (GLP-2) receptor (Rattus norvegicus, UniProt Q9Z0W0).
T1 sequence (Q9Z0W0 1-550): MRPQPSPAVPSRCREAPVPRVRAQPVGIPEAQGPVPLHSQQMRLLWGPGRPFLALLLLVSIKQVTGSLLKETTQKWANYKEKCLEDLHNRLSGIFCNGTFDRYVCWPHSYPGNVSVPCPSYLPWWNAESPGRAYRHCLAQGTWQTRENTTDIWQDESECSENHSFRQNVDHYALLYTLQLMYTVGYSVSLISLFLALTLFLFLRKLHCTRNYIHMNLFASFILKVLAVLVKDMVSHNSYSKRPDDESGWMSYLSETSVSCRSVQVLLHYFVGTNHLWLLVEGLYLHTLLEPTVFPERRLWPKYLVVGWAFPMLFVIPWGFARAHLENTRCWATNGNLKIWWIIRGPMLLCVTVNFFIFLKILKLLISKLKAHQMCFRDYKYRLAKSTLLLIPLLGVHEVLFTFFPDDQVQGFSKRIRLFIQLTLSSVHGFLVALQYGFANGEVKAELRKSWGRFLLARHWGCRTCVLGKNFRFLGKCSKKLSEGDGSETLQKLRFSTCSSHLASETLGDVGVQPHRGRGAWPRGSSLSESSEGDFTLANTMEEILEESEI
The settings on record: receptor activation, fold increase over basal cAMP production.

Turning to “A2G: variant of Glucagon like peptide-2 (GLP-2) [Chimera A2G]”, the “fold-increase in cAMP” value is listed as 10.00 fold. Consider “D3A: alanine variant of Glucagon like peptide-2 (GLP-2) (HAAGSFSDEMNTILDNLAARDFINWLIQTKITD; Glucagon-like peptide 2; UniProt P01275 146-178, looked up, variant D3A) [Chimera D3A]”, for which the “fold-increase in cAMP” value is on record as 1.02 fold. With “D8A: alanine variant of Glucagon like peptide-2 (GLP-2) (HADGSFSAEMNTILDNLAARDFINWLIQTKITD; Glucagon-like peptide 2; UniProt P01275 146-178, looked up, variant D8A) [Chimera D8A]”, the “fold-increase in cAMP” value is listed as 7.53 fold. For the substance “D15A: alanine variant of Glucagon like peptide-2 (GLP-2) (HADGSFSDEMNTILANLAARDFINWLIQTKITD; Glucagon-like peptide 2; UniProt P01275 146-178, looked up, variant D15A) [Chimera D15A]”, the “fold-increase in cAMP” value is on record as 4.54 fold.

In the case of “D21A: alanine variant of Glucagon like peptide-2 (GLP-2) (HADGSFSDEMNTILDNLAARAFINWLIQTKITD; Glucagon-like peptide 2; UniProt P01275 146-178, looked up, variant D21A) [Chimera D21A]”, the “fold-increase in cAMP” value was 4.42 fold.

Consider “D33A: alanine variant of Glucagon like peptide-2 (GLP-2) (HADGSFSDEMNTILDNLAARDFINWLIQTKITA; Glucagon-like peptide 2; UniProt P01275 146-178, looked up, variant D33A) [Chimera D33A]”, for which the “fold-increase in cAMP” value was 3.41 fold. For the substance “E9A: alanine variant of Glucagon like peptide-2 (GLP-2) (HADGSFSDAMNTILDNLAARDFINWLIQTKITD; Glucagon-like peptide 2; UniProt P01275 146-178, looked up, variant E9A) [Chimera E9A]”, the “fold-increase in cAMP” value is 3.76 fold. As to “F6A: alanine variant of Glucagon like peptide-2 (GLP-2) (HADGSASDEMNTILDNLAARDFINWLIQTKITD; Glucagon-like peptide 2; UniProt P01275 146-178, looked up, variant F6A) [Chimera F6A]”, the “fold-increase in cAMP” value is 1.67 fold. Take “F22A: alanine variant of Glucagon like peptide-2 (GLP-2) (HADGSFSDEMNTILDNLAARDAINWLIQTKITD; Glucagon-like peptide 2; UniProt P01275 146-178, looked up, variant F22A) [Chimera F22A]”: the “fold-increase in cAMP” value is reported as 1.61 fold. “G4A: alanine variant of Glucagon like peptide-2 (GLP-2) (HADASFSDEMNTILDNLAARDFINWLIQTKITD; Glucagon-like peptide 2; UniProt P01275 146-178, looked up, variant G4A) [Chimera G4A]”: the “fold-increase in cAMP” value is given as 2.87 fold.

Regarding “H1A: alanine variant of Glucagon like peptide-2 (GLP-2) (AADGSFSDEMNTILDNLAARDFINWLIQTKITD; Glucagon-like peptide 2; UniProt P01275 146-178, looked up, variant H1A) [Chimera H1A]”, the “fold-increase in cAMP” value was 0.78 fold. For the substance “I13A: alanine variant of Glucagon like peptide-2 (GLP-2) (HADGSFSDEMNTALDNLAARDFINWLIQTKITD; Glucagon-like peptide 2; UniProt P01275 146-178, looked up, variant I13A) [Chimera I13A]”, the “fold-increase in cAMP” value was 2.45 fold.

“I23A: alanine variant of Glucagon like peptide-2 (GLP-2) (HADGSFSDEMNTILDNLAARDFANWLIQTKITD; Glucagon-like peptide 2; UniProt P01275 146-178, looked up, variant I23A) [Chimera I23A]”: the “fold-increase in cAMP” value is given as 2.57 fold. For the substance “I27A: alanine variant of Glucagon like peptide-2 (GLP-2) (HADGSFSDEMNTILDNLAARDFINWLAQTKITD; Glucagon-like peptide 2; UniProt P01275 146-178, looked up, variant I27A) [Chimera I27A]”, the “fold-increase in cAMP” value is reported as 5.02 fold. On to “I31A: alanine variant of Glucagon like peptide-2 (GLP-2) (HADGSFSDEMNTILDNLAARDFINWLIQTKATD; Glucagon-like peptide 2; UniProt P01275 146-178, looked up, variant I31A) [Chimera I31A]”, for which the “fold-increase in cAMP” value is reported as 4.42 fold. With “K30A: alanine variant of Glucagon like peptide-2 (GLP-2) (HADGSFSDEMNTILDNLAARDFINWLIQTAITD; Glucagon-like peptide 2; UniProt P01275 146-178, looked up, variant K30A) [Chimera K30A]”, the “fold-increase in cAMP” value is given as 0.84 fold. Consider “L14A: alanine variant of Glucagon like peptide-2 (GLP-2) (HADGSFSDEMNTIADNLAARDFINWLIQTKITD; Glucagon-like peptide 2; UniProt P01275 146-178, looked up, variant L14A) [Chimera L14A]”, for which the “fold-increase in cAMP” value is listed as 2.03 fold. Turning to “L17A: alanine variant of Glucagon like peptide-2 (GLP-2) (HADGSFSDEMNTILDNAAARDFINWLIQTKITD; Glucagon-like peptide 2; UniProt P01275 146-178, looked up, variant L17A) [Chimera L17A]”, the “fold-increase in cAMP” value is reported as 1.02 fold. For the substance “L26A: alanine variant of Glucagon like peptide-2 (GLP-2) (HADGSFSDEMNTILDNLAARDFINWAIQTKITD; Glucagon-like peptide 2; UniProt P01275 146-178, looked up, variant L26A) [Chimera L26A]”, the “fold-increase in cAMP” value is 2.33 fold. For “M10A: alanine variant of Glucagon like peptide-2 (GLP-2) (HADGSFSDEANTILDNLAARDFINWLIQTKITD; Glucagon-like peptide 2; UniProt P01275 146-178, looked up, variant M10A) [Chimera M10A]”, the “fold-increase in cAMP” value is recorded as 0.78 fold. Regarding “N11A: alanine variant of Glucagon like peptide-2 (GLP-2) (HADGSFSDEMATILDNLAARDFINWLIQTKITD; Glucagon-like peptide 2; UniProt P01275 146-178, looked up, variant N11A) [Chimera N11A]”, the “fold-increase in cAMP” value was 7.65 fold. In the case of “N16A: alanine variant of Glucagon like peptide-2 (GLP-2) (HADGSFSDEMNTILDALAARDFINWLIQTKITD; Glucagon-like peptide 2; UniProt P01275 146-178, looked up, variant N16A) [Chimera N16A]”, the “fold-increase in cAMP” value is 5.92 fold.

For “N24A: alanine variant of Glucagon like peptide-2 (GLP-2) (HADGSFSDEMNTILDNLAARDFIAWLIQTKITD; Glucagon-like peptide 2; UniProt P01275 146-178, looked up, variant N24A) [Chimera N24A]”, the “fold-increase in cAMP” value was 10.00 fold.

“Q28A: alanine variant of Glucagon like peptide-2 (GLP-2) (HADGSFSDEMNTILDNLAARDFINWLIATKITD; Glucagon-like peptide 2; UniProt P01275 146-178, looked up, variant Q28A) [Chimera Q28A]”: the “fold-increase in cAMP” value was 5.80 fold. Take “R20A: alanine variant of Glucagon like peptide-2 (GLP-2) (HADGSFSDEMNTILDNLAAADFINWLIQTKITD; Glucagon-like peptide 2; UniProt P01275 146-178, looked up, variant R20A) [Chimera R20A]”: the “fold-increase in cAMP” value was 3.94 fold. As for “S5A: alanine variant of Glucagon like peptide-2 (GLP-2) (HADGAFSDEMNTILDNLAARDFINWLIQTKITD; Glucagon-like peptide 2; UniProt P01275 146-178, looked up, variant S5A) [Chimera S5A]”, the “fold-increase in cAMP” value is recorded as 4.00 fold.

As for “S7A: alanine variant of Glucagon like peptide-2 (GLP-2) (HADGSFADEMNTILDNLAARDFINWLIQTKITD; Glucagon-like peptide 2; UniProt P01275 146-178, looked up, variant S7A) [Chimera S7A]”, the “fold-increase in cAMP” value is on record as 7.59 fold. Turning to “T12A: alanine variant of Glucagon like peptide-2 (GLP-2) (HADGSFSDEMNAILDNLAARDFINWLIQTKITD; Glucagon-like peptide 2; UniProt P01275 146-178, looked up, variant T12A) [Chimera T12A]”, the “fold-increase in cAMP” value is listed as 3.11 fold. In the case of “T29A: alanine variant of Glucagon like peptide-2 (GLP-2) (HADGSFSDEMNTILDNLAARDFINWLIQAKITD; Glucagon-like peptide 2; UniProt P01275 146-178, looked up, variant T29A) [Chimera T29A]”, the “fold-increase in cAMP” value is recorded as 4.78 fold.
